In US20120316071A1 (published 2012):
Where a chain is given by its changes, count along the chain named. Names may count otherwise.

Key:
[1] = molecular target: T1, Recombinant Human DLL4 (delta-like protein 4) (human, UniProt Q9NR61 27-529); experiment: 96-well plate ECL binding assay, DLL4 immobilised, Fab in solution
T1 construct: Bought recombinant human DLL4 (R&D Systems Cat#1506-D4/CF); also called rHuman DLL4; Delta-like 4

[2] = molecular target: T1, Recombinant Human DLL4 (delta-like …); experiment: ELISA, DLL4 coated on plate, Fab in solution, absorbance at 450 nm
[3] = molecular target: T2, rHuman Notch-1/Fc Chimera, CF (R&D Systems Cat#3647-TK) (human, UniProt P46531 19-526); experiment: ECL multispot (MSD) binding assay, antigen spotted on plate;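 further: purified Fab incubated 1 h at 20 °C on antigen spots, detected with TAG-labelled antibody, electrochemiluminescence compared with each well's blank, signal-to-blank ratio ≥4 counted as hit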
T2 construct: Bought recombinant protein

[4] = molecular target: T3, rHuman HGF R/c-MET/Fc Chimera, CF (R&D Systems Cat#358-MT/CF) (human, UniProt P08581 25-932); experiment: as above
T3 construct: Bought recombinant protein; also called HGF R/Fc; hepatocyte growth factor receptor

[5] = molecular target: T4, rHuman CD44/Fc Chimera, CF (R&D Systems Cat#3660-CD) (human, UniProt P16070 21-220); experiment: as above
T4 construct: Bought recombinant protein

[6] = molecular target: T5, rHuman P-Cadherin/Fc Chimera, CF (R&D Systems Cat#861-PC) (human, UniProt P22223 108-654); experiment: as above
T5 construct: Bought recombinant protein

[7] = molecular target: T6, rHuman IGF-1 sR, (IGF-1 sR), CF (R&D Systems Cat#391-GR) (human, UniProt P08069 31-932); experiment: as above
T6 construct: Bought recombinant soluble receptor; also called insulin-like growth factor-1 soluble receptor

[8] = molecular target: T7, rHuman ErbB2/Fc Chimera, CF (R&D Systems Cat#1129-ER) (human, UniProt P04626 23-652); experiment: as above
T7 construct: Bought recombinant protein; also called human epidermal growth factor 2 receptor

[9] = molecular target: T8, rHuman EGF R/Fc Chimera, CF (R&D Systems Cat#344-ER) (human, UniProt P00533 25-645); experiment: as above
T8 construct: Bought recombinant protein; also called epidermal growth factor receptor

[10] = molecular target: T9, Recombinant Human DLL4 (R&D Systems Cat#1506-D4/CF) (human, UniProt Q9NR61 27-524); experiment: as above
T9 construct: Bought recombinant protein; also called delta-like protein 4; rHuman DLL4

[11] = molecular target: T10, Recombinant Human DLL4 (R&D Systems Cat#1506-D4/CF) (human, UniProt Q9NR61 27-524); experiment: ECL (MSD) multispot binding assay, DLL4 immobilised, Fab in solution
T10 construct: Bought protein (R&D Systems Cat#1506-D4/CF), immobilised on the MSD plate; also called delta-like protein 4; rHuman DLL4

[12] = molecular target: T11, rHuman ErbB2/Fc Chimera, CF (human, UniProt P04626 23-652); experiment: ECL Multispot (MSD) assay; antigen spotted on plate, Fab in solution;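 further: fab bound 1 h at 20 °C, detected by TAG-labelled antibody electrochemiluminescence, signal relative to each well's blank, ratio of 4 or more marks a hit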
T11 construct: Bought from R&D Systems; also called human epidermal growth factor 2 receptor; not shown: Fc of the bought chimera

[13] = molecular target: T12, rHuman Erythropoietin R/Fc Chimera, CF (human, UniProt P19235 25-250); experiment: as above
T12 construct: Bought from R&D Systems; also called EPO R; EPO R/Fc; not shown: Fc of the bought chimera
T12 sequence (looked up): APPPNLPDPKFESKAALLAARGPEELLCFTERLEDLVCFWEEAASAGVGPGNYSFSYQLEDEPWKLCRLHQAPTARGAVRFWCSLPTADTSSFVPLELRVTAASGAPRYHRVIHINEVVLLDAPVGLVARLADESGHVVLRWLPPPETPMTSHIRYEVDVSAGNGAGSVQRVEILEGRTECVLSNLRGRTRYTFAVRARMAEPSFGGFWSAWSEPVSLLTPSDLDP

[14] = molecular target: T13, rHuman IGF-1 sR, (IGF-1 sR), CF (human, UniProt P08069 31-932); experiment: as above
T13 construct: Bought from R&D Systems; also called insulin-like growth factor-1 soluble receptor

Recombinant Human DLL4 = molecular target: T14, Recombinant Human DLL4 (human, UniProt Q9NR61 27-524); experiment: as above
T14 construct: Bought from R&D Systems; also called delta-like protein 4; rHuman DLL4

[15] = molecular target: T15, rHuman HGF R/c-MET/Fc Chimera, CF (human, UniProt P08581 25-932); experiment: as above
T15 construct: Bought from R&D Systems; also called HGF R/Fc; hepatocyte growth factor receptor; not shown: Fc of the bought chimera

[16] = molecular target: T16, rHuman Notch-1/Fc Chimera, CF (human, UniProt P46531 19-526); experiment: as above
T16 construct: Bought from R&D Systems; not shown: Fc of the bought chimera

[17] = molecular target: T17, rHuman CD44/Fc Chimera, CF (human, UniProt P16070 21-220); experiment: as above
T17 construct: Bought from R&D Systems; not shown: Fc of the bought chimera

[18] = molecular target: T18, rHuman EGF R/Fc Chimera, CF (human, UniProt P00533 25-645); experiment: as above
T18 construct: Bought from R&D Systems; also called epidermal growth factor receptor; not shown: Fc of the bought chimera

T15 sequence (P08581 25-932, change not shown): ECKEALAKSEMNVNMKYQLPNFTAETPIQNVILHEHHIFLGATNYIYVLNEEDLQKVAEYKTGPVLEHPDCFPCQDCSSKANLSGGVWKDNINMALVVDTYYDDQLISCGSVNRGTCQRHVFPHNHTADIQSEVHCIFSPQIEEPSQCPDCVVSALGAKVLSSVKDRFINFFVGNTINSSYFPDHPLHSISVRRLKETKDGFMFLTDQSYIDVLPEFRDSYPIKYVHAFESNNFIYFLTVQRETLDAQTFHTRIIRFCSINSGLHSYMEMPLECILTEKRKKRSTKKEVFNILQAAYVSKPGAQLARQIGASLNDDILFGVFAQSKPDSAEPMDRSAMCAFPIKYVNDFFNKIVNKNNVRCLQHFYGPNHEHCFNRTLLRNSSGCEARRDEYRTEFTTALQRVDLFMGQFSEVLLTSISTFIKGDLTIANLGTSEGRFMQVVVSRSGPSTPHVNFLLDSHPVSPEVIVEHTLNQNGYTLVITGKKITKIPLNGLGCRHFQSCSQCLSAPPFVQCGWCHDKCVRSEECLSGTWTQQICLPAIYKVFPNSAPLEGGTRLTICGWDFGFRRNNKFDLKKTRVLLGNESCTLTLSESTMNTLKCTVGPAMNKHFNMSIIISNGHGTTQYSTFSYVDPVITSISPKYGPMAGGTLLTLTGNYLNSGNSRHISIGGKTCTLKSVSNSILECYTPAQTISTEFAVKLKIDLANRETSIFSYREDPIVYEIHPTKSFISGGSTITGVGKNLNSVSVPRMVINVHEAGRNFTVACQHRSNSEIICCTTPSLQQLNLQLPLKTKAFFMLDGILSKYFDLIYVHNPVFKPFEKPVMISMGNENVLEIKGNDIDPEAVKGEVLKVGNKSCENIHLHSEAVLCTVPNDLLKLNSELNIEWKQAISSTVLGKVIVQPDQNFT
T3 sequence (P08581 25-932, change not shown): as above

B1: Fab VH1-46_IGHD6-6*01_IGHJ1*01 S102A/S103P/S104F/H111F & L6_IGKJ1*01 S28N/S30D/S31H N53M (Fab, V domains shown)
VH: QVQLVQSGAEVKKPGASVKVSCKASGYTFTSYYMHWVRQAPGQGLEWMGIINPSGGSTSYAQKFQGRVTMTRDTSTSTVYMELSSLRSEDTAVYYCAREEYAPFSAEYFQFWGQGTLVTVSS
VL: EIVLTQSPATLSLSPGERATLSCRASQNVDHYLAWYQQKPGQAPRLLIYDASMRATGIPARFSGSGSGTDFTLTISSLEPEDFAVYYCQQRSNWPPWTFGQGTKVEIKR
notes: Fab with CH1 (plasmid A, His6 and Flag tags) and kappa CL (plasmid C); also called H:APFF & L:NDH N53M
ECL signal [1]: 17800
ELISA (Avgerage signal-noise) [2]: 0.162

B2: Fab VH1-46_IGHD6-6*01_IGHJ1*01 S102A/S103P/S104F/H111F (APFF) & L6_IGKJ1*01 S31A (Fab, V domains shown)
VH: B1 VH
VL: B1 VL with N28S, D30S, H31A, M53N
notes: Tested as Fab (CH1 with His6/Flag tags, kappa CL) made in E. coli; also called APFF / S31A
ECL signal [3]: 424
ECL signal [4]: 309
ECL signal [5]: 406
ECL signal [6]: 361
ECL signal [7]: 334
ECL signal [8]: 383
ECL signal [9]: 415
ECL signal [10]: 192000

B3: Fab VH1-46_IGHD6-6*01_IGHJ1*01 S102A/S103P/S104F/H111F (APFF) & L6_IGKJ1*01 N93S (Fab, V domains shown)
VH: B1 VH
VL: B1 VL with N28S, D30S, H31S, M53N, N93S
notes: Fab with CH1 plus His6/Flag tags and kappa CL from the expression plasmids; also called APFF & N93S
ECL signal [11]: 6440

B4: Fab VH1-46_IGHD6-6*01_IGHJ1*01 S102A/S103P/S104F/H111F (APFF) & L6_IGKJ1*01 S28Q (Fab, V domains shown)
VH: B1 VH
VL: B1 VL with N28Q, D30S, H31S, M53N
notes: Fab made in E. coli; the variable domains were cloned into Plasmid A (CH1, His and Flag tags) and Plasmid C (kappa CL); also called APFF / S28Q
ECL signal [12]: 345
ECL signal [13]: 437
ECL signal [14]: 404
ECL signal (Recombinant Human DLL4): 133000
ECL signal [15]: 380
ECL signal [16]: 331
ECL signal [17]: 420
ECL signal [18]: 517

B5: Fab VH1-46_IGHD6-6*01_IGHJ1*01 S102A/S103P/S104F/H111F (APFF) & L6_IGKJ1*01 N93H (Fab, V domains shown)
VH: B1 VH
VL: B1 VL with N28S, D30S, H31S, M53N, N93H
notes: Fab with CH1 plus His6/Flag tags and kappa CL from the expression plasmids; also called APFF & N93H
ECL signal [11]: 14700

B6: Fab VH1-46_IGHD6-6*01_IGHJ1*01 S102A/S103P/S104F/H111F & L6_IGKJ1*01 S28N/S30D/S31H S52L (Fab, V domains shown)
VH: B1 VH
VL: B1 VL with S52L, M53N
notes: Fab made in E. coli; The rest is CH1 from plasmid A (His6 and Flag tags) and kappa CL from plasmid C; also called H:APFF & L:NDH S52L
ECL signal [1]: 17800
ELISA (Avgerage signal-noise) [2]: 0.285

B7: Fab VH1-46_IGHD6-6*01_IGHJ1*01 S102A/S103P/S104F/H111F (APFF) & L6_IGKJ1*01 N93Y (Fab, V domains shown)
VH: B1 VH
VL: B1 VL with N28S, D30S, H31S, M53N, N93Y
notes: Fab with CH1 plus His6/Flag tags and kappa CL from the expression plasmids; also called APFF & N93Y
ECL signal [11]: 1380

B8: Fab VH1-46_IGHD6-6*01_IGHJ1*01 S102A/S103P/S104F/H111F & L6_IGKJ1*01 S28N/S30D/S31H N53G (Fab, V domains shown)
VH: B1 VH
VL: B1 VL with M53G
notes: Fab with CH1 (plasmid A, His6 and Flag tags) and kappa CL (plasmid C); also called H:APFF & L:NDH N53G
ECL signal [1]: 20600
ELISA (Avgerage signal-noise) [2]: 0.163

B9: Fab VH1-46_IGHD6-6*01_IGHJ1*01 S102A/S103P/S104F (APF) & L6_IGKJ1*01 R91P (Fab, V domains shown)
VH: B1 VH with F111H
VL: B1 VL with N28S, D30S, H31S, M53N, R91P
notes: Fab with CH1 plus His6/Flag tags and kappa CL from the expression plasmids; also called APF & R91P
ECL signal [11]: 1280
Signal/Blank [11]: 4.7
